Data reported in patent US20040191821.

Target: MuA transposase (residues 77-663) (Bacteriophage Mu) (UniProt P07636)
Conditions: 91/92 nt products; mismatch at center of 5 bp target; 10 mM MgCl2, 30 C; scale: % of strand transfer products at mismatch

MuA transposase (residues 77-663) (Bacteriophage Mu), sequence (P07636 77-663): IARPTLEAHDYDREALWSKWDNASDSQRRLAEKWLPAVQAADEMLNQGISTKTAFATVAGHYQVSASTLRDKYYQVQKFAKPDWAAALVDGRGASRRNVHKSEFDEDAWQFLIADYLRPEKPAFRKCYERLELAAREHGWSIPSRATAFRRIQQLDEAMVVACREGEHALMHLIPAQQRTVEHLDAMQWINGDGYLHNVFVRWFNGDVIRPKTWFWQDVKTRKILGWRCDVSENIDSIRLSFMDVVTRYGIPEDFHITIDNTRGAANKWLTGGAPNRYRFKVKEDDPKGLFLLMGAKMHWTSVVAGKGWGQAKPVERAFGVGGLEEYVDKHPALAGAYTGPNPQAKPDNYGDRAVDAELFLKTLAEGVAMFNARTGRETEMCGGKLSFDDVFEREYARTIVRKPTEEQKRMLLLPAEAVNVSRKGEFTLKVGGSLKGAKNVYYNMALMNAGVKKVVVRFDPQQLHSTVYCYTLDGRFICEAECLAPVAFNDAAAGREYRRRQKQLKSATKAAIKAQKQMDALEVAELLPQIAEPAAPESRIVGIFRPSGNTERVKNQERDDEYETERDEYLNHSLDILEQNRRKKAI

CGTTCATTAGCACAATCACAGAAGACTAGAATACAACCGCACATAAGATCAGAAGTTAACTAGCACTAGTACTTGC (double strand) [single mismatch target 76 bp]
activity: 90
